This assay deals with membrane IgG (mIgG) on IgG-expressing B-cell lines (human (endogenous in CRL 2632 and CRL 2289)) [IgG part: P01857]. In words: hemadsorption/hemagglutination (protein G-RBC rosetting); mIgG-expressing B-cells exposed to protein G-RBCs at 4°C without added mAb, rosettes scored by phase contrast microscopy.

Where only a bound is given, the exact number is not on record here.

As to “protein G on red blood cells (protein G-RBC) (from UniProt P19909 34-562) (natural protein)”, the HA background (percent rosetted cells) is under 30%.

(Values after PMC5342696.)
